Tested on: phospho-S6 Ribosomal Protein (S235/236) in hippocampus
Experiment: Hippocampal phospho-S6RP western blot and tissue staining 3 days post-TBI
Assay type: in vivo, mouse
Description: The mouse controlled cortical impact (CCI) injury model was used as previously described. In brief, mice were anesthetized with 5% isoflurane and 1:1 O2:N2 mixture. Animals were mounted on a stereotaxic frame and were secured by ear bars and an incisor bar. Anesthesia was maintained with 2.0% isoflurane and 1:1 O2:N2 mixture. A 5-mm-diameter craniotomy was made midway between bregma and lambda on the right side, with the medial edge of the craniotomy 1 mm lateral to midline. Injury was produced using a magnetic impactor mounted at an angle of 110° from the vertical plane. A single impact at a velocity of 4+/−0.2 m/s was used inflict a moderate to severe injury (1.2-1.3 mm impact depth). After injury, the incision was closed. Sham animals underwent identical surgeries except for impact injury. Core body temperature was monitored using a rectal thermometer and maintained at 36.8° C.-37.2° C. with a heating pad throughout the procedure. For treatments, TIMP3 (60.0 μg/kg) or vehicle control (PBS) administration was performed at 2, 24, and 48 hrs after injury via tail vein injections in a total volume of 125 μl. Animal research was performed with approval of the Institutional Animal Care and Use Committee at ISIS Services LLC (San Carlos, Calif., USA). Mice received humane care according to the criteria outlined by the National Research Council's Institute of Laboratory Animal Resources in the “Guide for the Care and Use of Laboratory Animals”. Neurocognitive testing conducted at UT Houston was in compliance with University of Texas Houston Institutional Animal Care and Use Committee.
Following treatments mice were subjected to a intra-cardiac perfusion-fixation procedure under isoflurane anesthesia. In brief, following a small incision into the right ventricle, a blunt needle was placed 5 mm into the heart and clamped in place. The left atrium was cut and 30 mls of ice cold PBS was perfused through the mouse using a syringe pump at a constant rate of 4 ml/min. After PBS the procedure was repeated with 30 ml of 4% ice-cold paraformaldehyde (PFA) in PBS. Upon completion of the perfusion procedure, brains were dissected out and placed in 20 mls of 4% PFA for a further 24 hrs before transferring to a 30% sucrose solution for an additional 48 hrs. Following sucrose infiltration, brains were frozen in Tissue-Tek O.C.T.™ compound (Cat#4583, Sakura Fineteck USA, Inc. Torrance, Calif.) using an isopentane/dry ice bath. To prepare coronal sections for tissue staining 20 μm thick sections were obtained using a Leica CM1850™ cryostat (Leica Microsystems, Buffalo Grove, Ill.). Sections were immediately placed in a Storage Solution (30% Glycerol, 30% Ethylene Glycol, 40% 0.1M Phosphate Buffer pH 7.2) and stored at −20° C. until required.
The same protocol was adopted for both tissue sections and isolated neuronal cultures. Briefly, sections were permeabilized with antibody staining solution:—2% w/v BSA (Cat# A3059. Sigma, St Louis, Mo.), 0.1% Triton X-100™ (Cat# X100. Sigma, St Louis, Mo.), 2% v/v goats serum (Cat# S-1000, Vector Labs, Burlingame, Calif.) in PBS. Sections were incubated overnight with primary antibodies on a rotating shaker at 4° C. Sections were then washed three times for 3 min with PBS, and then incubated with secondary antibodies for 1 hr. After staining, sections were washed in PBS, briefly air dried, and coverslipped using Prolong™ gold anti-fade reagent with DAPI (Cat# P36931, Life Technologies, Grand Island, N.Y.). Isolated neuronal cultures underwent the same staining protocol with the exception of the last step in which Prolong gold anti-fade reagent with DAPI was added to the wells of the culture plate sufficient to cover the material. Images were obtained using a Leica DMI6000-B™ inverted microscope, Leica DFC36-FX™ digital camera and Leica Application Suite™ (L.A.S.) software, version 3.1. […]

B1: TIMP3: Recombinant tissue inhibitor of matrix metalloproteinase-3, a soluble protein released by MSCs, obtained from Amgen Inc. (protein)
chain: CTCSPSHPQDAFCNSDIVIRAKVVGKKLVKEGPFGTLVYTIKQMKMYRGFTKMPHVQYIHTEASESLCGLKLEVNKYQYLLTGRVYDGKMYTGLCNFVERWDQLTLSQRKGLNYRYHLGCNCKIKSCYYLPCFVTSKNECLWTDMLSNFGYPGYQSKHYACIRQKGGYCSWYRGWAPPDKSIINATDP
ipsilateral hippocampal phospho-S6RP levels versus sham controls (3 days post-TBI, western blot): are not significantly elevated in TBI alone versus sham controls unlike IV TIMP3 treated animals versus Sham controls | phospho-S6 Ribosomal Protein (S235/236) in ipsilateral hippocampal homogenates (TIMP3 60 μg/kg IV x3, day 3, western blot, vs TBI alone): significantly elevates | phospho-S6RP pixel density in area CA3 (day 3, tissue staining): significant elevation | phospho-S6RP/NeuN+ve neurons in the GCL proximal to injury site (day 3, tissue staining): an elevation with TIMP3 treatment | phospho-S6RP (S235/236) in contralateral hippocampal homogenates (day 3, western blot): No differences were observed | phosphorylated S6RP staining in the non-neuronal molecular layer (microglia/astrocytes) (ipsilateral hippocampus, day 3): Neither sham controls nor TIMP3 treated TBI mice showed this pattern of staining

— patent US20150359847A1, “METHOD AND COMPOSITION FOR CONFERRING NEUROPROTECTION” (BLOOD SYSTEMS RESEARCH INSTITUTE, priority 2014, published 2015)
